# Experimental data: paper PMC7939381 (2020)
# Several values for one entry are separate records, joined by “and”; a condition that tells them apart may be missing. Identical values can stand only once. Like-named read-outs stand apart in the source and are kept apart here. Primed or numbered codes have the meaning given here. Where no end group is shown, it is not given here. [ ]: non-standard residue; d: D form. The star is where a group is joined. PEG2′ = short PEG linker placed between the N-terminal FITC label and the peptide; FITC = O=C1OC2(c3ccc(O)cc3Oc3cc(O)ccc32)c2ccc(NC(=S)*)cc21; pT = C[C@@H](OP(=O)(O)O)[C@H](N)C(=O)O; pS = N[C@@H](COP(=O)(O)O)C(=O)O
# T1: 14-3-3ζ, full length, N-terminally His6-tagged (human, UniProt P63104 1-245)
# T1 chain: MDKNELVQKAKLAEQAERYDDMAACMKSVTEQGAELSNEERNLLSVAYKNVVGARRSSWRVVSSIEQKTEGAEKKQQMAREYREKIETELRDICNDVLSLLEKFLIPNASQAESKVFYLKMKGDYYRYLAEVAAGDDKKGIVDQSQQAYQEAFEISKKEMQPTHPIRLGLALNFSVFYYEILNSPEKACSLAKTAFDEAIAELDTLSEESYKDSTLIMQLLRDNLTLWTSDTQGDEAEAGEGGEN
# T2: 14-3-3θ, full length, N-terminally His6-tagged (human, UniProt P27348 1-245)
# T2 chain: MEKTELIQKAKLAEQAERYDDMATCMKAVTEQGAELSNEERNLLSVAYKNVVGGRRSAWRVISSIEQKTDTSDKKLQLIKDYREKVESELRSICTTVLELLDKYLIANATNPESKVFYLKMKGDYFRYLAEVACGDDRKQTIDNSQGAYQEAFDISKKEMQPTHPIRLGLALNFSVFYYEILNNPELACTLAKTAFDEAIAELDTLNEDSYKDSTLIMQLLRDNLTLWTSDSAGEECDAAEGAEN
# T3: 14-3-3γ, full length, N-terminally His6-tagged (human, UniProt P61981 1-247)
# T3 chain: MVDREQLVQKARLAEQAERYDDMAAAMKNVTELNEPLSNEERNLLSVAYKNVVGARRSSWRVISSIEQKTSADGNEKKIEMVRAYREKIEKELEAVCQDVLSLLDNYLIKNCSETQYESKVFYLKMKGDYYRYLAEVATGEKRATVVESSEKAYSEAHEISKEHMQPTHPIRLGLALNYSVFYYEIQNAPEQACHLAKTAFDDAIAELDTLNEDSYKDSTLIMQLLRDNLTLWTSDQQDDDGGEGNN
# T4: 14-3-3ε, full length, N-terminally His6-tagged (human, UniProt P62258 1-255)
# T4 chain: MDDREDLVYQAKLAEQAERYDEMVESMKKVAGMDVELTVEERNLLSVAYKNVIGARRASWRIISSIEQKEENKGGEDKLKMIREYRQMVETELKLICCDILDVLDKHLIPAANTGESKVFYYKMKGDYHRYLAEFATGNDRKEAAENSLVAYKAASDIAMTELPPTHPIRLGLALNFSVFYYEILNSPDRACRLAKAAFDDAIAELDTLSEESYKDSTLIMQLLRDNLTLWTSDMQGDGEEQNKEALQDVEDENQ
# B1: fluorescently labeled peptide 11, APN 36–73 pSer43 pThr63 (peptide)
# peptide: EKNKNAN[pS]SPVASTTPSASATTNPASA[pT]TLDQSKAWNR
# modifications: not fully specified (N-terminus); also: FITC via PEG2 linker, site not given here
# B2: fluorescently labeled peptide 7, APN 36–73 pSer43 (peptide)
# peptide: EKNKNAN[pS]SPVASTTPSASATTNPASATTLDQSKAWNR
# modifications: not fully specified (N-terminus); also: FITC via PEG2 linker, site not given here
# B3: 14-3-3σ, full length, N-terminally His6-tagged (natural protein)
# chain: MERASLIQKAKLAEQAERYEDMAAFMKGAVEKGEELSCEERNLLSVAYKNVVGGQRAAWRVLSSIEQKSNEEGSEEKGPEVREYREKVETELQGVCDTVLGLLDSHLIKEAGDAESRVFYLKMKGDYYRYLAEVATGDDKKRIIDSARSAYQEAMDISKKEMPPTNPIRLGLALNFSVFHYEIANSPEEAISLAKTTFDEAMADLHTLSEDSYKDSTLIMQLLRDNLTLWTADNAGEEGGEAPQEPQS
# B4: 14-3-3η, full length, N-terminally His6-tagged (natural protein)
# chain: MGDREQLLQRARLAEQAERYDDMASAMKAVTELNEPLSNEDRNLLSVAYKNVVGARRSSWRVISSIEQKTMADGNEKKLEKVKAYREKIEKELETVCNDVLSLLDKFLIKNCNDFQYESKVFYLKMKGDYYRYLAEVASGEKKNSVVEASEAAYKEAFEISKEQMQPTHPIRLGLALNFSVFYYEIQNAPEQACLLAKQAFDDAIAELDTLNEDSYKDSTLIMQLLRDNLTLWTSDQQDEEAGEGN
# B5: 14-3-3β/α, full length, N-terminally His6-tagged (natural protein)
# chain: MTMDKSELVQKAKLAEQAERYDDMAAAMKAVTEQGHELSNEERNLLSVAYKNVVGARRSSWRVISSIEQKTERNEKKQQMGKEYREKIEAELQDICNDVLELLDKYLIPNATQPESKVFYLKMKGDYFRYLSEVASGDNKQTTVSNSQQAYQEAFEISKKEMQPTHPIRLGLALNFSVFYYEILNSPEKACSLAKTAFDEAIAELDTLNEESYKDSTLIMQLLRDNLTLWTSENQGDEGDAGEGEN
# Key:
# [1] = biological target: T1, 14-3-3ζ, full length, N-terminally …; test: FP
# [2] = biological target: T2, 14-3-3θ, full length, N-terminally …; test: FP
# [3] = biological target: B5; test: FP
# [4] = biological target: B4; test: FP
# [5] = biological target: B3; test: FP
# [6] = biological target: T3, 14-3-3γ, full length, N-terminally …; test: FP
# [7] = biological target: T4, 14-3-3ε, full length, N-terminally …; test: FP
# [8] = biological target: B5; test: FP
# [9] = biological target: B3; test: FP
# [10] = biological target: B4; test: FP
# [11] = biological target: B4; test: FP
# [12] = biological target: B5; test: FP
# [13] = biological target: B4; test: ITC; replicate B
# [14] = biological target: B4; test: ITC
# [15] = biological target: B4; test: ITC; replicate A
# peptide 13 [16] = test: FP
# peptide 13 [17] = test: FP; remark: listed apart in the source
binder,measurement,setting,value
"{FITC-PEG2′}-NKNAN[pS]SPV [FITC-labeled peptide 1, APN 38–46 pSer43]",Kd,[1],1.2 µM
same,Kd,[2],2 µM
same,Kd,[3],0.7 µM
same,Kd,[4],0.21 µM
same,Kd,[5],3.9 µM
same,Kd,[6],1.16 µM
same,Kd,[7],1.1 µM
same,Kd,[8],0.71 µM
same,Kd,[9],3.5 µM
"{FITC-PEG2′}-EKNKNAN[pS]SPVASTTPSASATTNPASATTLDQSKAWNR (also: second phosphorylated Ser/Thr, site not given here) [fluorescently labeled peptide 9, APN 36–73, bis-phosphorylated]",Kd,[8],23 µM
same,Kd,[10],15 µM
same,Kd,[9],> 167 µM
same,Kd,[11],15 µM
"{FITC-PEG2′}-EKNKNAN[pS]SPVASTTPSASATTNPASATTLDQSKAWNR (also: second phosphorylated Ser/Thr, site not given here) [fluorescently labeled peptide 8, APN 36–73, bis-phosphorylated]",Kd,[8],32 µM
same,Kd,[10],18 µM
same,Kd,[9],> 167 µM
same,Kd,[11],18 µM
"TTNPASATT (also: one phosphorylated Ser/Thr within Ser61–Thr64) [peptide 14, monophosphorylated APN 9-mer (noncanonical site of peptide 10)]",Kd,[12],> 167 µM
same,Kd,[11],70 µM
B1,Kd,[8],0.11 µM
same,Kd,[9],1.8 µM
"NKNAN[pS]SPV [peptide 1, APN 38–46 pSer43, as used in ITC]",Kd,[13],2.01 µM
same,Ka,[14],403000 M⁻¹ and 488000 M⁻¹ and 497000 M⁻¹
same,Kd,[15],2.48 µM
B2,Kd,[8],60 µM
same,Kd,[9],> 167 µM
"NPASA[pT]TLD [peptide 15, monophosphorylated APN 9-mer pThr63 (site 2)]",Kd,[12],45 µM
"PASATTLDQ (also: one phosphorylated Ser/Thr within Ser61–Thr64) [peptide 16, monophosphorylated APN 9-mer (noncanonical site of peptide 12)]",Kd,[12],> 333 µM
same,Kd,[11],> 167 µM
"{FITC-PEG2′}-EKNKNAN[pS]SPVASTTPSASATTNPASATTLDQSKAWNR (also: second phosphorylation within Ser61–Thr64, site not given here) [fluorescently labeled peptide 10, APN 36–73, bis-phosphorylated]",Kd,[8],0.88 µM
same,Kd,[10],0.42 µM
same,Kd,[9],6.6 µM
same,Kd,[11],0.42 µM
B3,Kd,peptide 13 [16],> 167 µM
B4,Kd,peptide 13 [17],> 83 µM
same,Kd,peptide 13 [16],> 83 µM
"{FITC-PEG2′}-EKNKNAN[pS]SPVASTTPSASATTNPASATTLDQSKAWNR (also: second phosphorylation within Ser61–Thr64, site not given here) [fluorescently labeled peptide 12, APN 36–73, bis-phosphorylated]",Kd,[8],0.45 µM
same,Kd,[10],0.18 µM
same,Kd,[9],4.1 µM
same,Kd,[11],0.18 µM
B5,Kd,peptide 13 [16],> 167 µM
